Assay results reported in the supplement of paper PMC9732359.
± gives the uncertainty stated by the source.

Assay: protein stability index of a GFP-peptide fusion (yeast GPS) (PSI 1-4); higher = more stable; sorted into four equal gates, so the index is relative within each strain
Procedure, shortened: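 Plasmids in a pooled yeast library fused tiled 17-residue yeast protein peptides downstream of GFP and also expressed Cherry. Mid-log cultures grown without leucine were sorted into four equal gates by GFP/Cherry fluorescence ratio. Each gate's plasmids were PCR-amplified and Illumina-sequenced, and reads were matched to strains by barcodes. The protein stability index is derived by multiplying each gate's read frequency by its gate number and summing the results.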

Sequence	protein stability index (doa10∆)	protein stability index (pdr5∆)	protein stability index (san1∆)	protein stability index (ubr1∆)
KSLGGGAALKDIEIVRV [FAS2]	2.27 ± 0.26	3.39 ± 0.15	3.17 ± 0.088	
VFGFRANKMRQDRLSDL [SMC4]				2.74 ± 0.081
DLAMANSLRRVMIAEIP [RPB3]	1.23 ± 0.061	1.36 ± 0.051	1.09 ± 0.18	1.44 ± 0.068
VKKVIEINPFLLGTMAG [PRE2]	1.37 ± 0.14	1.86 ± 0.18	1.38 ± 0.28	
KMVIAELLPHYPFVTND [YJR042W/NUP85]	2.83 ± 0.09	2.75 ± 0.092	2.87 ± 0.052	2.99 ± 0.073
MEEEQQRQERLRQQQQQ [RPN10]	3.4 ± 0.17	2.86 ± 0.25	3.37 ± 0.066	3.39 ± 0.085
LQNLQRIIRKKIFIAVV [RRI2]	1.21 ± 0.078	1.19 ± 0.073		1.16 ± 0.091
YSIFLENENILIKAKNF [SMC1]	1.21 ± 0.092	1.22 ± 0.11		1.14 ± 0.1
RVSKDKKSGSLTFNSKN [FAS2]	3.34 ± 0.084	3.26 ± 0.072	3.23 ± 0.092	3.18 ± 0.074
IEGMEQRIIKELSIRFP [ARP7]	3.04 ± 0.096	3.21 ± 0.12	2.84 ± 0.086	2.26 ± 0.099
PLLTKRKDLRDKLICSI [DIS3]	2.55 ± 0.088	2.62 ± 0.071	2.31 ± 0.1	3.06 ± 0.13
MSGILHCEDKDYKTAFS [RPN6]	2.95 ± 0.07	2.89 ± 0.071	2.51 ± 0.072	3.16 ± 0.049
SFFNISPDAPKEIMDKI [SIN4]	3.48 ± 0.11	3.32 ± 0.14	3 ± 0.13	3.29 ± 0.1
LSEEETLLVIRRLHKVL [SNF2]	1.7 ± 0.086	2.22 ± 0.07	1.84 ± 0.11	2.21 ± 0.053
KRDQYLKSASKETAPVI [RPL28]	2.7 ± 0.12	2.69 ± 0.12	2.59 ± 0.065	2.43 ± 0.13
EIVNMVPSHVPQVLINR [SIR2]	3.13 ± 0.11	2.93 ± 0.079	2.53 ± 0.11	2.88 ± 0.054
KAPNAVVITFEKEDHTL [RPB11]	1.26 ± 0.077	2.7 ± 0.12	2.19 ± 0.091	1.97 ± 0.076
EWDMLNVEEEQIVPYIE [BRR2]	3.2 ± 0.17	3.41 ± 0.18	3.02 ± 0.24	3.45 ± 0.29
PLINRLKHYNGYDINYI [SWI1]	2.41 ± 0.068	2.57 ± 0.051	2.76 ± 0.065	2.69 ± 0.043
SVANTPSEIPDAHKAEQ [SWI3]	3.04 ± 0.066	3.25 ± 0.065	3.42 ± 0.077	3.03 ± 0.061
SKSYTPRKLVLSSGENR [SMC4]	1.65 ± 0.03	1.82 ± 0.041	1.93 ± 0.056	1.7 ± 0.037
RKPMGKRINFEKIKDIH [POP1]	2.67 ± 0.051	3.12 ± 0.05	3.04 ± 0.065	2.87 ± 0.038
AVEFESVPLRKGDRALL [BRR2]	3.16 ± 0.29	3.45 ± 0.14	2.98 ± 0.075	2.87 ± 0.11
AAFEKRYRVDLLNTDHT [RPO21]	3.11 ± 0.076	3 ± 0.059	2.89 ± 0.058	2.88 ± 0.077
NEYVAKVSAREKSAYKF [FAS2]	3.23 ± 0.082	3.16 ± 0.073	3.04 ± 0.093	3.32 ± 0.061
GMIVISMENYHLLIKII [SRB8]	1.96 ± 0.043	2.04 ± 0.044	2.71 ± 0.048	2.66 ± 0.045
ELSVTGSAINHHRIFDS [YMR129W/POM152]	3.02 ± 0.12	3.24 ± 0.1	2.91 ± 0.12	2.93 ± 0.052
